Experiment: yeast display, Sf9 membrane polyspecificity reagent, FACS + sequencing; frameworks hold sequencing errors
Outline: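 Sorting gates, low and high (top ~1%), were placed on anti-HA fluorescence to track expression and on streptavidin fluorescence to track reagent binding. A clone's polyreactivity label is taken from the gate it came out of. The reagent was 10% biotinylated, detergent-solubilized Sf9 membrane, applied for 1 hour at 4 °C to galactose-induced yeast display cells.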

Sequence	polyreactivity (PSR sort gate)
QVQLVESGGGLVQAGGSLRLSCAASGSIFRGNAMGWYRQAPGKERELVAAISGSAGRTYYADSVKGRFTISRDNAKNTVYLQMNSLKPEDTAVYYCAADSFKGYDYWGQGTQVTVSS	high polyreactivity
QVQLVESGGGLVQAGGSLRLSCAASGSIFRGNAMGWYRQAPGKERELVAAISKSGGSTYYADSVKGRFTISRDNAKNTVNLQMNSLKPEDTAVYYCAARTTYLYGMYYWGQGTQVTVSS	low polyreactivity
QVQLVESGGGLVQAGGSLRLSCAASGSIFRGNSMGWYRQAPGKERELVAVITWSGGSTYYADSVKGRFTISRDNAKNTVYLQMNSLKPEDTAVYYCNAARKQRVYFAGDYWGQGTQVTVSS	high polyreactivity
QVQLVESGGGLVQAGGSLRLSCAASGSIFRGYAMGWYRQAPGKERELVAAITKIGASTYYADSVKGRFTISRDNAKNTVYLQMYSLKPEDTAVYYCNKDRGITPYRAYWGMDYWGQGTQVTVSS	low polyreactivity
QVQLVESGGGLVQAGGSLRLSCAASGSIFRGYAMGWYRQAPGKERELVAAITKRGGNTYYADSVKGRFTISRDNAKNTVYLQMNSLKPDDTAVYYCAKAGWGKWVYAQMDYWGQGTQVTVSS	high polyreactivity
QVQLVESGGGLVQAGGSLRLSCAASGSIFRGYAMGWYRQAPGKERELVAAITSSGGSTNYADSVKGRFTISRDNAKNTVYLQMNSLKPEDTAVYYCAKAPGLWHLIQRMDYWGQGTQVTVSS	low polyreactivity
QVQLVESGGGLVQAGGSLRLSCAASGSIFRGYTMGGYRQAPGKETELVAAISRSGGSTYYADSVKGRFTISRDNAKNTVYLQMNSLKPEDTAVYYCAADSFRTRAIYDYWGQGTQVTVSS	high polyreactivity
QVQLVESGGGLVQAGGSLRLSCAASGSIFRHYTMGWYRQAPGKERELVAVISSGGNTNYADSVKGLFTISRDNAKYTDYLQLNSLKPEDTAVYYCAAGGYDVYHDPYYYWGQGTQVTVSS	high polyreactivity
QVQLVESGGGLVQAGGSLRLSCAASGSIFRINAMGWYRQAPGKERELVAAISTSGGTTYYADSVKGRFTISRDNAKNTVYLQMNSLKPEDTAVYYCSARRVTSPFGSDSWGQGTQVTVSS	low polyreactivity
QVQLVESGGGLVQAGGSLRLSCAASGSIFRIYAMGWYRLEPGKERELVSGISKSVGSTYYADSVKGRFTISRDNAKNTVYLQMNSLKTEDTAVYYCNARRPSWGLDKYDYWGQGTQVTVSS	low polyreactivity
QVQLVESGGGLVQAGGSLRLSCAASGSIFRIYAMGWYRQAPGKEREFVAAISSRGGRTYYADSVKGRFTISRDNAKNTVYLQMNSLKPEDTAVYYCNARATRGSYYEYEYWGQGTQVTVSS	high polyreactivity
QVQLVESGGGLVQAGGSLRLSCAASGSIFRIYAMGWYRQAPGKERELVAAISRGSTRTYYADSVKGRFTISRDNAKNTVYLQMNSLKPEDTAVYYCAKRGISPYGYWGQGTQVTVSS	high polyreactivity
QVQLVESGGGLVQAGGSLRLSCAASGSIFRKYALGWYRQAPGKERELVAAIRSSGGSTYYADSVKGRFTISRDNAKNTVYLQMNSLKPEDTAVYYCAARYYRPSRYDYWGQGTQVTVSS	high polyreactivity
QVQLVESGGGLVQAGGSLRLSCAASGSIFRLNAMGWYRQAPGKERELVAAISRNTGRTYYADSVKGRFTISRDNAKNTVYLQMNSLKPEDTAVYYCAADRSPTGYVRVYYWGQGPQVTVSS	high polyreactivity
QVQLVESGGGLVQAGGSLRLSCAASGSIFRLNAMGWYRQAPGKERELVARIDSSGSTNYADSVKGRFTISRDNAKNTVYLQMNSLKPEDTAVYYCAAGLVLIVGMDSWGQGTQVTVSS	low polyreactivity
QVQLVESGGGLVQAGGSLRLSCAASGSIFRLNTMGWYRQAPGKERELVAAIFTSGGSTYADSVKGRFTISRDNAKNTVYLQMNSLKPEDTAVYYCAGMDYWGQGTQVTVSS	low polyreactivity
QVQLVESGGGLVQAGGSLRLSCAASGSIFRLYAMGWYRPAPGKERELVATITSGGNTYADSVKGRFTISRDNAKNTVYLQMNSLKPEDTAVYYCAARYRYRGTQRPYVGYYRNDYWGQGTQVTVSS	high polyreactivity
QVQLVESGGGLVQAGGSLRLSCAASGSIFRLYAMGWYRQAPGKERELVAAISRRGGSTNYADSVKGRFTISRDNAKNTVYLQMNSLKPEDTAVYYCARDVDTHYPYAYDYWGQGTQVTVSS	high polyreactivity
QVQLVESGGGLVQAGGSLRLSCAASGSIFRLYGMGWYRQAPGKERELVASITYRGGNTYYADSVKGRFTISRDNAKNTVYLQMNSLKPEDTAVYYCARSGYQKVGGFRYDYWGQGTQVTVSS	low polyreactivity
QVQLVESGGGLVQAGGSLRLSCAASGSIFRLYTMGWYRQAPGKERELVAAISQSGGRTYYADSVKGRFTISRDNAKNTVYLQMNSLNPEDTAVYYCNAVGPYRPYGGQGAPYDYWGQGTQVTVSS	high polyreactivity
QVQLVESGGGLVQAGGSLRLSCAASGSIFRNYAMGWSRQAPGKERELVAAITSIGGGTYYADSVKGRFTISRDNAKNTVYLQMNSLKPEDTADYYCAADYGFYPYDYVYWGQGTQVTVSS	low polyreactivity
QVQLVESGGGLVQAGGSLRLSCAASGSIFRNYAMGWYRQAPGKERELVAAITRGGGSTYYADSVKGRFTISRDNAKNTVYLQMNSLKPEDTAVYYGAAGSTRERNPRYGYWGQGTQVTVSS	high polyreactivity

Sequence	polyreactivity (PSR sort gate)
QVQLVESGGGLVQAGGSLRLSCAASGSIFRPNAMGWYRQAPGKERELVAAITWSGDSTYYADSVKGRFTISRDNAKNTVYLQMNSLKPEDTADYYCAADFTYQGSSANDYWGQGTQVTVSS	low polyreactivity
QVQLVESGGGLVQAGGSLRLSCAASGSIFRQYAMGWYRQAPGKDRELVAAIRSGGSTYYADSVQGRFTISRDNAKNTVYLQMNSLKPEDTAVYYCARGYSWSVGYPRVQDMDYWGQGTQVTVSS	high polyreactivity
QVQLVESGGGLVQAGGSLRLSCAASGSIFRRYAMGWNRQAPGKERELVAYISRSGGSTYYADSVKGRFTISRDNAKNTVYLQMNRLKPEDTAVYYCAAQRYRTGDSWGQGTQVTVSS	high polyreactivity
QVQLVESGGGLVQAGGSLRLSCAASGSIFRRYAMGWYRQAPGKEREFVAAITRSGGGTYYADSVKGRFTLSRDNAKNTVYLQMNSLIPEDTAVYYCAKDVFVQRSRYPEGDYWGQGTQVTVSS	high polyreactivity
QVQLVESGGGLVQAGGSLRLSCAASGSIFRRYAMGWYRQAPGKERELVAAISFSGYSTYYADSVKGRFTISRDNAKNTVYLQMNSLKPEDTAVYYCAARSQRHKLSRDYNYWGQGTQVTVSS	high polyreactivity
QVQLVESGGGLVQAGGSLRLSCAASGSIFRRYAMGWYRQAPGKERELVAGISSGGYTNYADSVKGRFTISRDNAKNTVYLQMNSLKPEDTAVYYCAAKQYRYVRYRPVDYWGQGTQVTVSS	high polyreactivity
QVQLVESGGGLVQAGGSLRLSCAASGSIFRSYAMGWYRQAPGKERELVAAIRSDGRTNYADSVKGRFTISRDNAKNTVYFQMNSLKPEDTAVYYCDANAYYSYWRSMDYWGQGTQVTVSS	low polyreactivity
QVQLVESGGGLVQAGGSLRLSCAASGSIFRSYAMGWYRQAPGKERELVAAISRRGGSTYYADSVKGRFTISRDNVKNTVYLQMNSLKPEDTAVYYCAADRTGPYDYWGQGTQVTVSS	high polyreactivity
QVQLVESGGGLVQAGGSLRLSCAASGSIFRSYAMGWYRQAPGKERELVAAISWDGGTTYYADSVKGRFTISRDNAKNTVYLQMNSLKPEDTAVYYCAADASLLGLFQGYDYRGQGTQVTVSS	low polyreactivity
QVQLVESGGGLVQAGGSLRLSCAASGSIFRSYAMGWYRQAPGKERELVAAITSGDSTYYADSVKGRFTISRDNAKNTVYLQMNSLKPEDTAVYYCATGLGSTDRSYEYWGQGTQVTVSS	low polyreactivity
QVQLVESGGGLVQAGGSLRLSCAASGSIFRSYAMGWYRQAPGKERELVASISRRGGSTYYADSVKGRFTISRDNAKNTVYLQMNSLKPEDTAVYYCAVESGYTRSSDYWGQGTQVTVSS	low polyreactivity
QVQLVESGGGLVQAGGSLRLSCAASGSIFRSYAMGWYRQAPGKERELVASITWRGGRTYYADSVKGRFTISRDNAKNTVYLQMNSLKPEDSAVYYCNVDVPGVRFEYWGQGTQVTVSS	low polyreactivity
QVQLVESGGGLVQAGGSLRLSCAASGSIFRSYAMGWYRQAPGKERELVATIDRSGGSTYYADSVKGRFTISRDNAKNTVYLQMNSLKPEDTAVYYCNKTPHFPRPGFNYWGQGTQVTVSS	low polyreactivity
QVQLVESGGGLVQAGGSLRLSCAASGSIFRSYAMGWYRQAPGKERELVSAIRGSDGNTYYADSVKGRFTISRDNAKNTVYLQMNSLKPEDTAVYYCNARSYGYRTSRARYNYWGQGTQVTVSS	high polyreactivity
QVQLVESGGGLVQAGGSLRLSCAASGSIFRSYAMGWYSQAPGKERELVASISRRGGSTYYADSVKGRFTMSRDHAKNTVYLQMNSLKPEDTAVYYCAAVRYNSRVSTTPSEMYYWGQGTQVTVSS	low polyreactivity
QVQLVESGGGLVQAGGSLRLSCAASGSIFRTNAMGWYRPAPGKERELVAAITGSGGSTYYADSVKGRFTISRDNAKNTVYLQMNSLKPEDTAVYYCATPVNRERHAEDYWGQGTQVTVSS	low polyreactivity
QVQLVESGGGLVQAGGSLRLSCAASGSIFRTYAMGWYRQAPGKERELVAAISQSGGSTYYADSVKGRFTISRDNAKNTVYLQMNSLKPEDTAVYYCNKYFTRRQSAVSLSPGKFDYWGQGTQVTVSS	high polyreactivity
QVQLVESGGGLVQAGGSLRLSCAASGSIFRTYAMGWYRQAPGKERELVAAITSGGSTYYADSVKGRFTISRDNAKNTVYLQMNSLKPEDTAVYYCAAVRYYRYWYYWGQGTQVTVSS	high polyreactivity
QVQLVESGGGLVQAGGSLRLSCAASGSIFRTYSMGGYRQAPGKERELVATITFGGVSTYYADSVKGRFTISRDNAKNTVYLQMNSLKPEDTAVYYCAADVYTRFWRVYRFDYWGQGTQVTVSS	low polyreactivity
QVQLVESGGGLVQAGGSLRLSCAASGSIFRVYAMGWYRQAPGKEREFLAAITTRGGSTYYADSVKGRFTISRDNAKNTVYLQMNSLKPEDTAVYYCAARGWVSAYYGYDYWGQGTQVTVSS	high polyreactivity
QVQLVESGGGLVQAGGSLRLSCAASGSIFRVYAMGWYRQAPGKERELVASMSSDGSTYYADSVKGRFTISRDNAKNTVYLQMNSLKPEDTAVYYEYDWGQGTQVTVSS	low polyreactivity
